Measurements reported in patent publication US12123876B2, “Antibody binding to HEG1 and use of the antibody for detection and treatment of mesothelioma” (Kanagawa Prefectural Hospital Organization, priority 2016, dated 2024).

Experiments:
[1] = tested on: healthy tissues without any apparent lesion; assay: Immunohistological staining of normal tissues; set-up: species or system human
Method: AMeX-fixed cell precipitates or formalin-fixed tissues were paraffin-embedded to prepare thin sections. Each of the sections was fixed to a microscope slide, and subjected to deparaffinization and dehydration with xylene and ethanol, followed by activation of an antigen under different conditions. Each section was treated with 3% hydrogen peroxide for 5 minutes to deactivate endogenous peroxidase, and then washed with PBS and blocked with 0.5% casein for 10 minutes. After 100 μL of a solution containing a primary antibody was added to each section and treated at room temperature for 2 hours, the section was washed with PBS and allowed to develop color by using a Histofine Simple Stain MAX-PO (Multi) ([…] BIOSCIENCE INC.), Ventana ultraView DAB universal kit (Roche Diagnostics K. K.), or the EnVision+kits. Each section was stained with hematoxylin and then dehydrated, and encapsulated with Malinol (MUTO PURE CHEMICALS CO., LTD.) to observe under a microscope. The conditions for activation of an antigen were as follows: at 98° C. for 40 minutes for calretinin, mesothelin, and the SKM9-2 antigen; and at 95° C. for 64 minutes for cytokeratin 5/6 (CK5/6), podoplanin, and Wilms' tumor gene product 1 (WT-1). The following activation solutions were used: 10 mM Tris buffer (pH 9.0) containing 1 mM ethylenediamine tetraacetate (EDTA) for calretinin, CK5/6, and podoplanin; and 10 mM citrate buffer (pH 6.0) containing 0.1% TWEEN® 20 (polyethylene glycol sorbitan monolaurate, polyoxyethylenesorbitan monolaurate) for WT-1, mesothelin, and the SKM9-2 antigen. The following primary antibodies were used: a rabbit anti-calretinin polyclonal antibody (PAD:DC8) (Life Technologies Japan Ltd., Tokyo, Japan) for calretinin; a mouse anti-cytokeratin 5,6 monoclonal antibody (D5/16B4) ([…] BIOSCIENCE INC.) for CK5/6; a mouse anti-human mesothelin monoclonal antibody (5B2) (Leica Microsystems, Inc., Bannockburn, IL) for mesothelin; a mouse anti-podoplanin monoclonal antibody (D2-40) (Roche Diagnostics K. K.) for podoplanin; and a mouse anti-human WT-1 monoclonal antibody (6F-H2) (Roche Diagnostics K. K.) for WT-1.
In addition, the reactivity of the SKM9-2 antibody with normal tissues was examined by immunohistological staining. Immunostaining was performed by using the SKM9-2 antibody for healthy tissues without any apparent lesion.

[2] = tested on: HEG1 protein on the surface of ACC-MESO4 cells; assay: Flow cytometry of ACC-MESO4 cells with antibody; type: cell-based, human; conditions: FITC-labeled anti-mouse IgG, flow cytometer
Method: First, ACC-MESO4 was cultured, and cells adhering to the culture dish were peeled off with a scraper. The cells peeled off were reacted with the SKM9-2 antibody, and then treated with FITC-labeled anti-mouse IgG, and analyzed by using a flow cytometer. […] If the SKM9-2 antibody binds to the extracellular region of HEG1 protein, cells are to be FITC-labeled and thus fluorescence would be observed in flow cytometry.

[3] = tested on: formalin-fixed tissue sections of cancers except mesothelioma; assay: Hybridoma screening by immunostaining of formalin-fixed tissue sections; conditions: hybridoma culture supernatant

B1: SKM9-2 antibody: mouse monoclonal IgG1 kappa antibody binding glycosylated HEG1; heavy chain SEQ ID NO: 2, light chain SEQ ID NO: 4 (antibody, listed as Mus musculus)
heavy: MGWSSIILFLVATTTGVHSQVQLQQPGAELVRPGASVKLSCKASGFSFTTYWITWVKQRPGQGLEWIGMIHPSDSETRLSQTFKDKATLTVDKSSNTAYMQFSSPTSEDSAVYYCVRDFDVWGAGTTVTVSSAKTTPPSVYPLAPGSAAQTNSMVTLGCLVKGYFPEPVTVTWNSGSLSSGVHTFPAVLQSDLYTLSSSVTVPSSTWPSETVTCNVAHPASSTKVDKKIVPRDCGCKPCICTVPEVSSVFIFPPKPKDVLTITLTPKVTCVVVDISKDDPEVQFSWFVDDVEVHTAQTQPREEQFNSTFRSVSELPIMHQDWLNGKEFKCRVNSAAFPAPIEKTISKTKGRPKAPQVYTIPPPKEQMAKDKVSLTCMITDFFPEDITVEWQWNGQPAENYKNTQPIMDTDGSYFVYSKLNVQKSNWEAGNTFTCSVLHEGLHNHHTEKSLSHSPGK
light: MKLPVRLLVLMFWIPASISDVLMTQTPLSLPVSLGDQASISCRSSQNIVHNNGNTYLGWYLQKPGQSPKLLIFKVSNRFSGVPDRFSGSGSGTDFTLKISRVEAEDLGVYYCFQGSHIPRTFGGGTRLEIKRADAAPTVSIFPPSSEQLTSGGASVVCFLNNFYPKDINVKWKIDGSERQNGVLNSWTDQDSKDSTYSMSSTLTLTKDEYERHNSYTCEATHKTSTSPIVKSFNRNEC
With B1 the “Number of positive cases/number of samples” value ([1]; Bladder and ureter) was 0/5, the “Number of positive cases/number of samples” value ([1]; Blood vessel, *Some cells were positive) was “*5/8” and the “Number of positive cases/number of samples” value ([1]; Bronchus) was 0/12. The “Number of positive cases/number of samples” value ([1]; Cerebrum) was 0/29, the “Number of positive cases/number of samples” value ([1]; Duodenum) was 0/2 and the “Number of positive cases/number of samples” value ([1]; Esophagus) was 0/2. The “Number of positive cases/number of samples” value ([1]; Gallbladder) was 0/5, the “Number of positive cases/number of samples” value ([1]; Kidney) was 0/10 and the “Number of positive cases/number of samples” value ([1]; Large intestine) was 0/6. For the same molecule, the “Number of positive cases/number of samples” value ([1]; Liver) was 0/8, the “Number of positive cases/number of samples” value ([1]; Lung) was 0/23 and the “Number of positive cases/number of samples” value ([1]; Lymph node) was 0/4. The “Number of positive cases/number of samples” value ([1]; Mammary gland) was 0/5, the “Number of positive cases/number of samples” value ([1]; Muscle) was 0/4 and the “Number of positive cases/number of samples” value ([1]; Myocardium) was 0/12. The “Number of positive cases/number of samples” value ([1]; Ovary) was 0/4, the “Number of positive cases/number of samples” value ([1]; Pancreas) was 0/10 and the “Number of positive cases/number of samples” value ([1]; Pericardium) was 1/1. The “Number of positive cases/number of samples” value ([1]; Peritoneum) was 0/2, the “Number of positive cases/number of samples” value ([1]; Pleura) was 0/5 and the “Number of positive cases/number of samples” value ([1]; Prostate) was 0/10. For the same molecule, the “Number of positive cases/number of samples” value ([1]; Stomach) was 0/3, the “Number of positive cases/number of samples” value ([1]; Testicular serosa) was 0/1 and the “Number of positive cases/number of samples” value ([1]; Testis) was 1/5. For the same molecule, the “Number of positive cases/number of samples” value ([1]; Thyroid) was 0/5, the “Reactivity with normal tissue cells” value ([1]; normal mesothelial cells other than pericardial mesothelial cells) was “Negative” and the “Reactivity with normal tissue cells” value ([1]; pericardial mesothelial cells) was “positive image”. The “Reactivity with normal tissue cells” value ([1]; seminiferous tubule, one case for the testis) was “positive”, the “Reactivity with normal tissue cells” value ([1]; vascular endothelial cells) was “positive image” and the “Binding to cell surface of ACC-MESO4” value [2] was “bind to a HEG1 protein part exposed on the surface of the cell membrane”. For the same molecule, the “Reactivity with formalin-fixed tissue sections of cancers except mesothelioma” value [3] was “almost non-reactive”.
